Data published in patent US20040038369.

Biological target: T1, HBEGF (delta TM)-ALP, Q99075
T1 chain: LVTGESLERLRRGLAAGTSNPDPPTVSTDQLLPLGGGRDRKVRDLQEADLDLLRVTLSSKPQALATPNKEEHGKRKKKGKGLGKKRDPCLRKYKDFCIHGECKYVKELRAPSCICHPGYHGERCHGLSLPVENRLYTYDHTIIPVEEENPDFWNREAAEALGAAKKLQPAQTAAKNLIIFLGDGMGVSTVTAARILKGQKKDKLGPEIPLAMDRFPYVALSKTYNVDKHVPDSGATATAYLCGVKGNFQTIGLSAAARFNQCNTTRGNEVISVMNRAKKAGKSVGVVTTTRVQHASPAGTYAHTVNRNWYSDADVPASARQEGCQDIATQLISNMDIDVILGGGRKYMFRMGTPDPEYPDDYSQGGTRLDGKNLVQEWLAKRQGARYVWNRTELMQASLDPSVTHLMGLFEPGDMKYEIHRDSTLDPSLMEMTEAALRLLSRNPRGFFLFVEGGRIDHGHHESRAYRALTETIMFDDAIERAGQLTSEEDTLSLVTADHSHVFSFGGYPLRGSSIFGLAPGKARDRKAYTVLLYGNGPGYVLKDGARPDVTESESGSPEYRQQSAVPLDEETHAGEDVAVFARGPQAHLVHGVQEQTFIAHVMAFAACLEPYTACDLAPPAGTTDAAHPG

B1: recombinant AST (human airway-specific trypsin-like enzyme expressed in insect cells with a baculovirus vector, purified as in Example 1) (peptide)
chain 1: DQAAANWLINECGAGPDLITLSEQR
chain 2: not shown
With B1 the “cleavage seen by western blotting of the lysate incubated with recombinant HAST (1.56 U/mL) at 37° C. overnight” value was “A mature type having the EGF domain of the HB-EGF was cut out. The band was shifted to a position of about 12 kD”.
